Structures can show the parent of a compound that is named as a salt. Where two headings read alike, the source gives them in different places.
What was measured:
[1] = target: T1, atypical BChE from O. latipes (Oryzias latipes, UniProt D5L5S0); experiment: Ellman assay, COS-7 extract, three-parameter logistic fit; format: biochemical
T1 construct: GPI-anchored amphiphilic dimer (G2a)
T1 sequence (D5L5S0 26-589): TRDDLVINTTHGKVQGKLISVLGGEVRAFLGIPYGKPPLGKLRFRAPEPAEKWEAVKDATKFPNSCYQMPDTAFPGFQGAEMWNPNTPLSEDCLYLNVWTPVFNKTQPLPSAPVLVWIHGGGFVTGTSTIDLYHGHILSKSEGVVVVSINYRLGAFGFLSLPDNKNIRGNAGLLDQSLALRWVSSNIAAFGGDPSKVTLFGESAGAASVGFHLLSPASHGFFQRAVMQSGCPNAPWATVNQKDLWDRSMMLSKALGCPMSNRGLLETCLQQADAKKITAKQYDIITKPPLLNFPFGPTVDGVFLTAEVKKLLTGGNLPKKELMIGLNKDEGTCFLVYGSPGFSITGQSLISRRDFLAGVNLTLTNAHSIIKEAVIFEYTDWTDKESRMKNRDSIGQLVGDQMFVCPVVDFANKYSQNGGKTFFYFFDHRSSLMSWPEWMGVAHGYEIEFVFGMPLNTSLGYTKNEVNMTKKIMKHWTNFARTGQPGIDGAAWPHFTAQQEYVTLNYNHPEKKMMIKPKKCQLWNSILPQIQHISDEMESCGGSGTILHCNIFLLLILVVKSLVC
Text: Ellman assay, COS-7 extract, three-parameter logistic fit on atypical BChE from O. latipes

[2] = substrate: CC(=O)SCC[N+](C)(C)C; experiment: Ellman assay, COS-7 extract, fit with substrate inhibition (Km, Kss, b); format: biochemical, Oryzias latipes; details: 100 mM NaHPO4 pH 7, 0.3 mM DTNB, 167 mM NaCl, 258 µM Triton X-100
Text: (§1) Ellman assay, COS-7 extract, fit with substrate inhibition (Km, Kss, b) on atypical BChE from O. latipes

[3] = substrate: CCC(=O)SCC[N+](C)(C)C; experiment: as above; format: biochemical, Oryzias latipes; details: 100 mM NaHPO4 pH 7, 0.3 mM DTNB, 167 mM NaCl, 258 µM Triton X-100
Text: as §1

[4] = substrate: CCCC(=O)SCC[N+](C)(C)C; experiment: as above; format: biochemical, Oryzias latipes; details: 100 mM NaHPO4 pH 7, 0.3 mM DTNB, 167 mM NaCl, 258 µM Triton X-100
Text: as §1

CC(C)NP(=O)(NC(C)C)OP(=O)(NC(C)C)NC(C)C [iso-OMPA, N-[bis(propan-2-ylamino)phosphoryloxy-(propan-2-ylamino)phosphoryl]propan-2-amine]
IC50 ([1]; read-out: IC50 M): 4580 µM

CNC(=O)Oc1ccc2c(c1)[C@]1(C)CCN(C)[C@@H]1N2C [physostigmine, (3aS-cis)-1,2,3,3a,8,8a-hexahydro-1,3a,8-trimethylpyrrolo[2,3-b]indol-5-ol methylcarbamate]
IC50 [1]: 0.0585 µM

CCN(CC)C(C)CN1c2ccccc2Sc2ccccc21 (stereo not shown) [ethopropazine, 10-(2-diethylaminopropyl) phenothiazine hydrochloride]
IC50 ([1]; read-out: IC50 M): 0.898 µM

C=CC[N+](C)(C)c1ccc(CCC(=O)CCc2ccc([N+](C)(C)CC=C)cc2)cc1 [BW284c51, [4-[5-[4-(dimethyl-prop-2-enyl-ammonio)phenyl]-3-oxo-pentyl]phenyl]-dimethyl-prop-2-enyl-azanium dibromide]
IC50 ([1]; read-out: IC50 M): 480 µM

B1: atypical BChE from O. latipes (Oryzias latipes) (protein)
chain: T1 sequence (D5L5S0 26-589)
notes: GPI-anchored amphiphilic dimer (G2a)
Km [2]: 270 ± 18 µM | kcat [2]: 460 ± 18.3 s⁻¹ | kcat/Km [2]: 1.72e+06 ± 83300 M⁻¹ s⁻¹ | Km [3]: 156 ± 15 µM | kcat [3]: 512 ± 40 s⁻¹ | kcat/Km [3]: 3.33e+06 ± 83300 M⁻¹ s⁻¹ | Km [4]: 72 ± 6 µM | kcat [4]: 117 ± 5 s⁻¹ | kcat/Km [4]: 1.65e+06 ± 117000 M⁻¹ s⁻¹

Reference: PMC3045457, “Evolution of Acetylcholinesterase and Butyrylcholinesterase in the Vertebrates: An Atypical Butyrylcholinesterase from the Medaka Oryzias latipes” (PLoS ONE, 2011)
